Assay results taken from publication doi:10.1101/477745, “The (p)ppGpp-binding GTPase Era promotes rRNA processing and cold shock survival in Staphylococcus aureus” (bioRxiv, 2019).

Legend:
[1] = target: T1, Era fused to SB (small bit of luciferase) (S. aureus, UniProt Q2FGF6 1-299); experiment: split reporter (BiFC, NanoBiT); split luciferase (SB and LB fusions from pAP118) in S. aureus LAC*; 100 ng/ml Atet for 90 min, normalised to OD600 0.1, Nano-Glo; luminescence relative to a control with one fusion only; conditions: partners not purified
T1 construct: GTPase Era, Staphylococcus aureus; For the Era-Era pair the second copy of Era was fused to the large bit (LB); also called EraSB; full-length Era; source: S. aureus LAC*, expressed from pAP118 with Atet, in cells
T1 sequence (looked up): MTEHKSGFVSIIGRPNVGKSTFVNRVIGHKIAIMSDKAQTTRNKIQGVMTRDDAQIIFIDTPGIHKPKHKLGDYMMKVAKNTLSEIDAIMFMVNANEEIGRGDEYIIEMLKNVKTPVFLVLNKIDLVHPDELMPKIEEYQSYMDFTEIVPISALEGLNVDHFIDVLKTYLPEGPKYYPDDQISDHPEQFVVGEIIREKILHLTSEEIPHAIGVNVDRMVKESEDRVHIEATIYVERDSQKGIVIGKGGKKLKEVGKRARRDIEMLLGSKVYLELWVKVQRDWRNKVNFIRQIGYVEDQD

GST-CshA = target: T2, GST-CshA (S. aureus, UniProt Q2FF45 1-506); experiment: pull-down; 1 uM GST or GST fusion coupled to glutathione beads; incubated with His-tagged protein (printed 1 pM) in 25 mM Tris pH 7.5, 150 mM NaCl, 5 mM MgCl2, 0.5% Triton X-100 at 4°C overnight; eluted with glutathione; blot with anti-His-HRP; conditions: both partners purified
T2 construct: DEAD-box RNA helicase CshA, Staphylococcus aureus; also called GST-tagged CshA; not shown: GST, N-terminal, kept

| Binder | fold increase in luciferase activity [1] | binding result (GST-CshA) |
| --- | --- | --- |
| full-length CshA fused to LB (large bit of luciferase) (natural protein, S. aureus, UniProt Q2FF45 1-506, looked up, DEAD-box RNA helicase CshA, Staphylococcus aureus, 506 residues by the printed domain limits; also called CshALB; source: S. aureus LAC*, expressed from pAP118 with Atet, in cells) MQNFKELGISDNTVQSLESMGFKEPTPIQKDSIPYALQGIDILGQAQTGTGKTGAFGIPLIEKVVGKQGVQSLILAPTRELAMQVAEQLREFSRGQGVQVVTVFGGMPIERQIKALKKGPQIVVGTPGRVIDHLNRRTLKTDGIHTLILDEADEMMNMGFIDDMRFIMDKIPAVQRQTMLFSATMPKAIQALVQQFMKSPKIIKTMNNEMSDPQIEEFYTIVKELEKFDTFTNFLDVHQPELAIVFGRTKRRVDELTSALISKGYKAEGLHGDITQAKRLEVLKKFKNDQINILVATDVAARGLDISGVSHVYNFDIPQDTESYTHRIGRTGRAGKEGIAVTFVNPIEMDYIRQIEDANGRKMSALRPPHRKEVLQAREDDIKEKVENWMSKESESRLKRISTELLNEYNDVDLVAALLQELVEANDEVEVQLTFEKPLSRKGRNGKPSGSRNRNSKRGNPKFDSKSKRSKGYSSKKKSTKKFDRKEKSSGGSRPMKGRTFADHQK | 4 fold |  |
| His-tagged Era (natural protein, S. aureus, UniProt Q2FGF6 1-299, looked up, GTPase Era, Staphylococcus aureus; also called His-Era; recombinant Era) MTEHKSGFVSIIGRPNVGKSTFVNRVIGHKIAIMSDKAQTTRNKIQGVMTRDDAQIIFIDTPGIHKPKHKLGDYMMKVAKNTLSEIDAIMFMVNANEEIGRGDEYIIEMLKNVKTPVFLVLNKIDLVHPDELMPKIEEYQSYMDFTEIVPISALEGLNVDHFIDVLKTYLPEGPKYYPDDQISDHPEQFVVGEIIREKILHLTSEEIPHAIGVNVDRMVKESEDRVHIEATIYVERDSQKGIVIGKGGKKLKEVGKRARRDIEMLLGSKVYLELWVKVQRDWRNKVNFIRQIGYVEDQD |  | binds |
